B1: library; numbered along this chain (parent)
chain: MEVVDPQQLGMFTEGELMSVGMDTFIHRIDSTEVIYQPRRKRAKLIGKYLMGDLLGEGSYGKVKEVLDSETLCRRAVKILKKKKLRRIPNGEANVKKEIQLLRRLRHKNVIQLVDVLYNEEKQKMYMVMEYCVCGMQEMLDSVPEKRFPVCQAHGYFCQLIDGLEYLHSQGIVHKDIKPGNLLLTTGGTLKISDLGVAEALHPFAADDTCRTSQGSPAFQPPEIANGLDTFSGFKVDIWSAGVTLYNITTGLYPFEGDNIYKLFENIGKGSYAIPGDCGPPLSDLLKGMLEYEPAKRFSIRQIRQHSWFRKKHPPAEAPVPIPPSPDTKDRWRSMTVVPYLEDLHGADEDEDLFDIEDDIIYTQDFTVPGQVPEEEASHNGQRRGLPKAVCMNGTEAAQLSTKSRAEGRAPNPARKACSASSKIRRLSACKQQ

Variants of: B1
Test: STK11 functional score (HeLa growth suppression), rescaled enrichment; synonymous median = 1, nonsense median = 0 (normalised score)
Details: with HeLa; variant type: missense
Procedure, shortened: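 The values are functional scores: wild-type-corrected log ratios of post- versus pre-selection abundance, rescaled to synonymous and nonsense medians, merged over codons and replicate transfections, and carrying bootstrapped error. They derive from codon-randomised (POPCode), codon-optimised STK11 libraries that Bxb1 integrated at an AAVS1 landing pad in HeLa, with three transfections for each of three regions. Sequencing of tiled gDNA amplicons ran on NextSeq, at ~2 million reads per tile.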

STK11 functional score, by site and new letter:
S213: M 1.15; W 1.14; A 1.38; G 1.37; V 1.02; F 1.35; C 0.758; Y 1.34; P 1.32; L 1.17; I 0.902; R 1.04; T 1.05; N 1.65; H 1.68
D207: L 0.856; P 1.01; S 0.778; G 0.954; E 1.48; N 0.668; A 1.27; H 1.37; V 1.09; Y 0.314; M 1.17; W 0.239; R 1.55
R211: A 1.28; I 0.844; F 1.61; S 1.32; V 1.35; T 1.22; G 1.51; P 1.19; H 1.32; L 1.21; E 1.53; D 1.68; C 1.25; M 1.42; Y 1.53
G196: R -0.0503; A 0.488; V 1.08
D194: G -0.36; E -0.268; F -0.213; R -0.0399; L -0.0619; H -0.252; S -0.236; P -0.348; C -0.228; I -0.258; V -0.261; Y -0.089
I192: V 1.33; C 1.43; Y 1.11; M 1.25; T -0.0391; W 0.0777; F 1.13; N 1.23
C210: V 1; G 1.03; P 1.18; I 1.12; T 1.35; E 0.0554; L 0.435; W 0.601; K 1.3; D 1.37; A 1.33; M 0.956; S 0.964; F 1.04; H 1.42
V197: S 1.58; M -0.102; W 1.25; R 1; C 1.55; A 1.26; G 0.372; L 1.05
L201: V 0.808; E 0.334; R 0.929; G 0.745; W 0.55; P 1.36; N 1.19; S 0.759; C 1.12; K 1.64; M 0.914; T 1.2; H 1.16; I 1.48; D 0.769; A 1.59; F 0.797
L195: A 1.17; F 1.46; R 0.0408; T 1.67; V 0.433; W 0.87; I 1.44; E 1.59; P 1.49; D 1.64; S 0.972; G 0.969
A198: I -0.192; Y 1.04; S 0.503; R 0.174; L 1.13; W 1.16; H 1.54; F 0.731; T 1.23; G 1.28; P 0.974; N 0.745; V 1.38
L190: M 1.21; A 0.537; P 0.0599; Y 0.0792; S 0.0644; W 0.118; R 0.223; I 1.04; G 0.073; D -0.215; V 1; F 0.343
H202: N 0.176; W 0.389; G 1.3; S 1.17; E 1.47; I 1.31; D 0.804; L 0.766; V 1.27; P 0.806; A 1.17; T 0.925; F 0.754; R 0.161; M 1.19
A205: F 1.35; E 1.64; L 0.703; H 1.33; R 1.23; P 0.302; C 1.25; I 1.47; G 0.712
